The text below walks through data of patent US20120202233.

This data set deals with myc-CRAF (wild type).

B1: FLAG-KSR (wild-type KSR1) (protein)
chain: MDRAALRAAAMGEKKEGGGGGAAADGGAGAAVSRALQQCGQLQKLIDISIGSLRGLRTKCSVSNDLTQQEIRTLEAKLVKYICKQQQSKLSVTPSDRTAELNSYPRFSDWLYIFNVRPEVVQEIPQELTLDALLEMDEAKAKEMLRRWGASTEECSRLQQALTCLRKVTGLGGEHKMDSGWSSTDARDSSLGPPMDMLSSLGRAGASTQGPRSISVSALPASDSPVPGLSEGLSDSCIPLHTSGRLTPRALHSFITPPTTPQLRRHAKLKPPRTPPPPSRKVFQLLPSFPTLTRSKSHESQLGNRIDDVTPMKFELPHGSPQLVRRDIGLSVTHRFSTKSWLSQVCNVCQKSMIFGVKCKHCRLKCHNKCTKEAPACRITFLPLARLRRTESVPSDINNPVDRAAEPHFGTLPKALTKKEHPPAMNLDSSSNPSSTTSSTPSSPAPFLTSSNPSSATTPPNPSPGQRDSRFSFPDISACSQAAPLSSTADSTRLDDQPKTDVLGVHEAEAEEPEAGKSEAEDDEEDEVDDLPSSRRPWRGPISRKASQTSVYLQEWDIPFEQVELGEPIGQGRWGRVHRGRWHGEVAIRLLEMDGHNQDHLKLFKKEVMNYRQTRHENVVLFMGACMNPPHLAIITSFCKGRTLHSFVRDPKTSLDINKTRQIAQEIIKGMGYLHAKGIVHKDLKSKNVFYDNGKVVITDFGLFGISGVVREERRENQLKLSHDWLCYLAPEIVREMIPGRDEDQLPFSKAADVYAFGTVWYELQARDWPFKHQPAEALIWQIGSGEGVRRVLASVSLGKEVGEILSACWAFDLQERPSFSLLMDMLERLPKLNRRLSHPGHFWKSADINSSKVMPRFERFGLGTLESGNPKM
Turning to B1, the “in vitro kinase activity towards purified MEK in KSR immunoprecipitates, phospho-MEK antibody (FIG. 1G)” value is “Treatment of cells with PLX4720 induced kinase activity towards MEK in the KSR immunoprecipitates and only occurred when KSR and CRAF were co-expressed together”.
